Assay results from US11643467 (dated 2023).

What was measured:
Assay in all cases: ELISA
[1] = molecular target: T1, FGFR1-Fc (human, UniProt P11362)
T1 chain: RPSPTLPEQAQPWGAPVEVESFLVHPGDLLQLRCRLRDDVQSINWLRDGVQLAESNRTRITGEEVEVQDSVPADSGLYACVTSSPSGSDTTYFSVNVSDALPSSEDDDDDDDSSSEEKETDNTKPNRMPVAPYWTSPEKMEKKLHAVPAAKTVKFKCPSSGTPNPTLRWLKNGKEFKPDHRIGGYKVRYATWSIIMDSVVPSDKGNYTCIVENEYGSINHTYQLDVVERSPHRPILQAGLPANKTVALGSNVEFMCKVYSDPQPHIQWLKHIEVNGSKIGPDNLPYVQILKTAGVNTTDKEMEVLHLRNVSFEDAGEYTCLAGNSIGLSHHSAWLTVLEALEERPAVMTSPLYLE

[2] = molecular target: T2, FGFR3-Fc (human, UniProt P22607)
T2 chain: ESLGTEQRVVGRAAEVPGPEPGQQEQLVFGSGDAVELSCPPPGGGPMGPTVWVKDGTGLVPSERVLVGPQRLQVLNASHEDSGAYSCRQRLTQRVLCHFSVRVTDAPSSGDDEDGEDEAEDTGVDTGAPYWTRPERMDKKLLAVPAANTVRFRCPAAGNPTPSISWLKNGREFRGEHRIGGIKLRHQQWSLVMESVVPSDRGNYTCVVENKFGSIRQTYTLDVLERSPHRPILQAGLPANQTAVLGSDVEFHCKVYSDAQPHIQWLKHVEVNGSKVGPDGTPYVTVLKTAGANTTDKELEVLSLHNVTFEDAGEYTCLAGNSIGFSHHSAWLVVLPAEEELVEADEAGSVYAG

[3] = molecular target: FGFR2-Fc (human, UniProt P21802)
Chain of FGFR2-Fc (P21802 22-377): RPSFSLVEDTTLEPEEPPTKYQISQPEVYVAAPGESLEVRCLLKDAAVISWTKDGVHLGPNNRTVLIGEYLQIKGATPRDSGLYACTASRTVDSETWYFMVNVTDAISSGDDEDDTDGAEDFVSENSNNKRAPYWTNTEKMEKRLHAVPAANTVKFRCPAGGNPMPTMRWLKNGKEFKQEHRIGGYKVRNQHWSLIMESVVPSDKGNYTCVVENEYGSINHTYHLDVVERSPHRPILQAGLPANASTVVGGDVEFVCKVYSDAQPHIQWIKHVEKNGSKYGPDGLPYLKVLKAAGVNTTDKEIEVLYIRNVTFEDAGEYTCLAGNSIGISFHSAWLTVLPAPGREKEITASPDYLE

binding result [1]: no binding | binding result [2]: no binding | binding result [3]: no binding
B1: ch3B6 (antibody, V domains shown)
VH: EVQLVESGGGLVQPGRSLKLSCAASGFTFSNYYMAWVRQAPKKGLEWVATINPSGTRTYYPDSVKGRFTLSRDSAKSSLYLQMNSLKSEDTATFYCARLYNNYAFDYWGQGVMVTVSS
VL: DVQMTQSPALAVSPGERVSISCRASESVSTLMHWYQQKPGQQPKLLIYGTSNLESGVPARFSGSGSGTDFTLNIDPVEADDTATYFCQQSWNDPPTFGGGTKLELK
